Positions count from the first letter of the chain named.
B1: pCART207, a variant IdeZ polypeptide (enzyme)
chain: MDDYQRNATEAYAKEVPHQITSVWTKGVTPPEQFTQGEDVIHAPYLAHQGWYDITKAFDGKDNLLCGAATAGNMLHWWFDQNKTEIEAYLSKHPEKQKIIFRNQELFDLKAAIDTKDSQTNSQLFNYFRDKAFPNLSARQLGVMPDLVLDMFINGYYLNVFKTQSTDVNRPYQDKDKRGGIFDAVFTRGDQTTLLTARHDLKNKGLNDISTIIKQELTEGRALALSHTYANVSISHVINLWGADFNAEGNLEAIYVTDSDANASIGMKKYFVGINAHGHVAISAKKIEGENIGAQVLGLFTLSSGKDIWQKLS
B2: pCART229, a variant IdeZ polypeptide (enzyme)
chain: B1 chain with D190N
B3: N240, a variant IdeZ polypeptide of the invention (enzyme)
chain: B1 chain with D59N, N63D, D190N
B4: pCART242, a variant IdeZ polypeptide of the invention (enzyme)
chain: MSVWTKGVTPPEQFTQGEDVIHAPYLAHQGWYDITKAFNGKDDLLCGAATAGNMLHWWFDQNKTEIEAYLSKHPEKQKIIFRNQELFDLKAAIDTKDSQTNSQLFNYFRDKAFPNLSARQLGVMPDLVLDMFINGYYLNVFKTQSTDVNRPYQDKDKRGGIFDAVFTRGNQTTLLTARHDLKNKGLNDISTIIKQELTEGRALALSHTYANVSISHVINLWGADFNAEGNLEAIYVTDSDANASIGMKKYFVGINAHGHVAISAKKIEGENIGAQVLGLFTLSSGKDIWQKLSGGGHHHHHH

Experiments:
Test in all cases: cell-based or functional assay
[1] = target: Humira (Abbvie), human IgG1
[2] = target: XGEVA (Amgen), human IgG2
[3] = target: human IgG3 from Sigma (15654 Lot #SLBW0899) (human)
[4] = target: human IgG4 from Abcam (ab90286 Lot #GR3180469) (human)
[5] = target: Humira (Abbvie), human IgG1; remark: listed apart in the source
[6] = target: XGEVA (Amgen), human IgG2; remark: listed apart in the source

| Binder | Approximate EC50 value, i.e. equal amounts of scIgG and F(ab')2 (SDS-PAGE) [1] | Conc. of enzyme for cleavage of 1st IgG1 heavy chain, IgG to scIgG (SDS-PAGE) [1] | Conc. of enzyme for cleavage of 2nd IgG1 heavy chain, scIgG to F(ab')2 (SDS-PAGE) [1] | Approximate EC50 value, i.e. equal amounts of scIgG and F(ab')2 (SDS-PAGE) [2] | Conc. of enzyme for cleavage of 1st IgG2 heavy chain, IgG to scIgG (SDS-PAGE) [2] | Conc. of enzyme for cleavage of 2nd IgG2 heavy chain, scIgG to F(ab)2 (SDS-PAGE) [2] | IgG3 EC50 F(ab')2 (SDS-PAGE, visual estimate) [3] | IgG3 EC50 scIgG (SDS-PAGE, visual estimate) [3] | IgG4 EC50 F(ab')2 (SDS-PAGE, visual estimate) [4] | IgG4 EC50 scIgG (SDS-PAGE, visual estimate) [4] | IgG1 EC50 F(ab')2 (SDS-PAGE, visual estimate) [5] | IgG1 EC50 scIgG (SDS-PAGE, visual estimate) [5] | IgG2 EC50 F(ab')2 (SDS-PAGE, visual estimate) [6] | IgG2 EC50 scIgG (SDS-PAGE, visual estimate) [6] |
| --- | --- | --- | --- | --- | --- | --- | --- | --- | --- | --- | --- | --- | --- | --- |
| B1 | ~0.04 mg/L | ~1.5 ng/mL | ~120 ng/mL | ~1.1 mg/L | ~40 ng/mL | ~3300 ng/mL | – | – | – | – | – | – | – | – |
| B2 | ~0.04 mg/L | ~1.5 ng/mL | ~120 ng/mL | ~1.1 mg/L | ~40 ng/mL | ~3300 ng/mL | – | – | – | – | – | – | – | – |
| B3 | – | – | – | – | – | – | 0.015 mg/L | 0.007 mg/L | 0.062 mg/L | 0.002 mg/L | 0.014 mg/L | 0.0005 mg/L | 0.12 mg/L | 0.0046 mg/L |
| B4 | – | ~1.5 ng/mL | ~40 ng/mL | – | ~10 ng/mL | ~400 ng/mL | – | – | – | – | – | – | – | – |
